Positions count from the first letter of the chain named.
Tests used:
Test in all cases: SPR, KD relative to WT C2;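 also: biacore SPR at 37 °C, anti-C2 mAbs captured on anti-human IgG chips with alanine or serine point mutants of C2 as analyte, KD from 1:1 fit compared with wild-type C2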
human C2 H331A = target: T1, human C2 H331A (human, UniProt P06681 21-752)
T1 sequence: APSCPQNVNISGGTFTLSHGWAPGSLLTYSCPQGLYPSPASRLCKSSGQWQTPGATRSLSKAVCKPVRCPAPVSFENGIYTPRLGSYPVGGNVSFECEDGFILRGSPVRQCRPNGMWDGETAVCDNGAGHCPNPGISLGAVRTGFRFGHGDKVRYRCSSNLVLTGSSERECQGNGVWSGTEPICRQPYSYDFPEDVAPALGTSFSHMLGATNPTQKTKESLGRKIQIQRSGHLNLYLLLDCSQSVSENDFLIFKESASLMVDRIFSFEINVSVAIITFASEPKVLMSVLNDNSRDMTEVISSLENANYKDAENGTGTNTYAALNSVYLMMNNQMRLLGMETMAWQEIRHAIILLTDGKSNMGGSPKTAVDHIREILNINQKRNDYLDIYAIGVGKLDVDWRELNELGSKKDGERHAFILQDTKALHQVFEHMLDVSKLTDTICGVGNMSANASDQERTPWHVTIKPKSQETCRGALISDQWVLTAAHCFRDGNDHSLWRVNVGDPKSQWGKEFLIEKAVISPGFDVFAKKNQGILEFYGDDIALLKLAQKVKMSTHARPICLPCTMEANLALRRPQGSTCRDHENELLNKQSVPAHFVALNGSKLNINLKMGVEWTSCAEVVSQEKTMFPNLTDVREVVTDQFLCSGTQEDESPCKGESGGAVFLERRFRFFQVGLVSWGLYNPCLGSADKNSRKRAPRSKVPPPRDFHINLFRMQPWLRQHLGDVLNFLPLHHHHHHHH

[1] = target: T2, human complement C2 (wild type) (human, UniProt P06681 21-752)
T2 construct: Full-length human C2 (NP_000054) with C-terminal 8x His tag, secreted from Expi293F cells and purified from the supernatant; also called WT; huC2
T2 sequence: T1 sequence with A311H

human C2 G432A = target: T3, human C2 G432A (human, UniProt P06681 21-752)
T3 sequence: T1 sequence with A311H, G412A

B1: RF16-242 (antibody, human IgG4 S228P, lambda, V domains shown)
VH: EVQLLQSGAEVKKPGESLKISCKGSGYSFTSYWIGWVRQMPGKGLEWMGIIYPGDSDTRYSPSFQGQVTISADKSISTAYLQWSSLKASDTAMYYCARRGHYGDYFDYWGQGTLVTVSS
VL: SYELTQPPSVSVSPGQTARITCSGDALPKKYAYWYHQKSGQAPVLVIYEDRRRPSEIPERFSGSSSGTMATLTITGAQVEDEGVYFCYSRDRAGNQRVFGGGTQLTVLG
notes: pH-dependent anti-C2 antibody from a phage display library
Question: How did the Fold diff (human C2 H331A) turn out when B1 was run?
Answer: 27 fold

Question: And the Fold diff [1]?
Answer: 1 fold

Question: What about the Fold diff (human C2 G432A) of the same binder?
Answer: 1 fold

Reference: patent US20220332804A1 (CSL INNOVATION, published 2022)
